In patent US20240182596A1, “ANTI-NAPI2B ANTIBODIES AND ANTIBODY-DRUG-CONJUGATES BASED THEREON, THERAPEUTIC METHODS AND USES THEREOF” (Tubulis GmbH, priority 2022, published 2024):

Legend:
[1] = molecular target: recombinant human FcRn (FcγRn-SmBiT, Lumit assay) (human) (UniProt P55899); assay: Lumit FcRn Binding Immunoassay (Promega), competition with Tracer-LgBiT for FcRn-SmBiT, n=1
[2] = molecular target: FcγRIIIa (CD16) (V158) (Homo sapiens) (UniProt P08637); assay: Lumit FcγRIIIa (V158) Binding Immunoassay (Promega), left panel FcγRIIIa (CD16) (V158), competition with Tracer-LgBiT, n=1
FcγRIIa (CD32) (H131) = assay: Lumit FcγRIIa (H131) Binding Immunoassay (Promega), left panel FcγRIIa (CD32) (H131), competition with Tracer-LgBiT, n=1
FcγRIIa (CD32) (H131), sequence (chain, as listed by the source limits assumed): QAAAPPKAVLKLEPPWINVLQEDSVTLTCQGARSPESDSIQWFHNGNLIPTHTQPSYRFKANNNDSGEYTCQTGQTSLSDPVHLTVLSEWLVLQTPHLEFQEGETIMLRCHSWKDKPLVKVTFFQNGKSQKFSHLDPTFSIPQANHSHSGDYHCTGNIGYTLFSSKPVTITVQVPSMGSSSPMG

FcγRIIIa (CD16) (V158) (Homo sapiens), sequence (P08637 17-208 F176V limits assumed): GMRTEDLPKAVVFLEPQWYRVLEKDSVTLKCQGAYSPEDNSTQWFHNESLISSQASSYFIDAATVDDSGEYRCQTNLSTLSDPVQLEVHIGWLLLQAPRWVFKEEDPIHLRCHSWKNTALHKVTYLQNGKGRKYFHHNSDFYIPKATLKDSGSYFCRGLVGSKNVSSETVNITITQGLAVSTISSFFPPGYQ
recombinant human FcRn (FcγRn-SmBiT, Lumit assay) (human), sequence (P55899 24-297 limits assumed, chain 1 of 2): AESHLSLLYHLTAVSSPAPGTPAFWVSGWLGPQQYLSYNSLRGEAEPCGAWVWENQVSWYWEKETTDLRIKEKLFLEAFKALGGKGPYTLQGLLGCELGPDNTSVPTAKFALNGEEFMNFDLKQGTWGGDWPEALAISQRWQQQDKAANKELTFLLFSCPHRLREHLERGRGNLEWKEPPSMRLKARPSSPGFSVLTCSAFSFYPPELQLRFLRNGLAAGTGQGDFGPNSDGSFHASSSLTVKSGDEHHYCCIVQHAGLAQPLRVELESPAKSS
recombinant human FcRn (FcγRn-SmBiT, Lumit assay) (human), sequence (chain, as listed by the source limits assumed, chain 2 of 2): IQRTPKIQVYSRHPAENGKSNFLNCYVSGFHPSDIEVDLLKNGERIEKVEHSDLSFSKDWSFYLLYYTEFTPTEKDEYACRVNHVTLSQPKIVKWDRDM

IgG1 positive control (standard of the Lumit FcγR Binding Immunoassays) (antibody)
IC50 (read off the curve) [1]: 2 µg/mL | IC50 (read off the curve) [2]: 2 µg/mL | IC50 (read off the curve) (FcγRIIa (CD32) (H131)): 1 µg/mL
